What follows are binders tested against T1, CD3 epsilon homodimer protein (UniProt P07766 23-126) (assay: SPR Biacore T200, CD3 epsilon homodimer on chip, antibody as analyte;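 note: homodimer amine-coupled to a CM4 sensor chip, run at 25 °C in HBS-EP+ buffer, with kinetic parameters derived in Biacore T200 Evaluation Software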).
T1 construct: also called CD3 (CD3 epsilon)
T1 sequence (P07766 23-126): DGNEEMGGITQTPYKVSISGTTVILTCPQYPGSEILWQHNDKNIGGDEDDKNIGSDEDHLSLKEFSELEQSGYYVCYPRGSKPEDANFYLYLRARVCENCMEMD

Binder	KD ratio (KD of CE115HA000 / KD of altered form)
CE115HA000 H chain altered form K52D (antibody, human IgG1, kappa, L234A L235A, N297A, name in Kabat numbering, one-arm antibody) heavy: QVQLVESGGGVVQPGRSLRLSCAASGFTFSNAWMHWVRQAPGKGLEWVAQIDAKSNNYATYYAESVKGRFTISRDDSKNSLYLQMNSLKTEDTAVYYCRYVHYGAYYGVDAWGQGTTVTVSSASTKGPSVFPLAPSSKSTSGGTAALGCLVKDYFPEPVTVSWNSGALTSGVHTFPAVLQSSGLYSLSSVVTVPSSSLGTQTYICNVNHKPSNTKVDKKVEPKSCDKTHTCPPCPAPEAAGGPSVFLFPPKPKDTLMISRTPEVTCVVVDVSHEDPEVKFNWYVDGVEVHNAKTKPREEQYASTYRVVSVLTVLHQDWLNGKEYKCKVSNKALPAPIEKTISKAKGQPREPQVYTLPPSRCELTKNQVSLSCAVKGFYPSDIAVEWESNGQPENNYKTTPPVLDSDGSFFLVSKLTVDKSRWQQGNVFSCSVMHEALHNHYTQKSLSLSPDYKDDDDK EPKSSDKTHTCPPCPAPELLGGPSVFLFPPKPKDTLMISRTPEVTCVVVDVSHEDPEVKFNWYVDGVEVHNAKTKPREEQYNSTYRVVSVLTVLHQDWLNGKEYKCKVSNKALPAPIEKTISKAKGQPREPQVCTLPPSRDELTKNQVSLWCLVKGFYPSDIAVEWESNGQPENNYKTTPPVLDSDGSFFLYSKLTVDKSRWQQGNVFSCSVMHEALHNRYTQKSLSLSP light: DIVMTQSPLSLPVTPGEPASISCRSSQSLVHSNRNTYLHWYQQKPGQAPRLLIYKVSNRFSGVPDRFSGSGSGTDFTLKISRVEAEDVGVYYCGQGTQVPYTFGQGTKLEIKRTVAAPSVFIFPPSDEQLKSGTASVVCLLNNFYPREAKVQWKVDNALQSGNSQESVTEQDSKDSTYSLSSTLTLSKADYEKHKVYACEVTHQGLSSPVTKSFNRGEC	166
CE115HA000 H chain altered form K52F (antibody, human IgG1, kappa, L234A L235A, N297A, name in Kabat numbering, one-arm antibody) heavy: QVQLVESGGGVVQPGRSLRLSCAASGFTFSNAWMHWVRQAPGKGLEWVAQIFAKSNNYATYYAESVKGRFTISRDDSKNSLYLQMNSLKTEDTAVYYCRYVHYGAYYGVDAWGQGTTVTVSSASTKGPSVFPLAPSSKSTSGGTAALGCLVKDYFPEPVTVSWNSGALTSGVHTFPAVLQSSGLYSLSSVVTVPSSSLGTQTYICNVNHKPSNTKVDKKVEPKSCDKTHTCPPCPAPEAAGGPSVFLFPPKPKDTLMISRTPEVTCVVVDVSHEDPEVKFNWYVDGVEVHNAKTKPREEQYASTYRVVSVLTVLHQDWLNGKEYKCKVSNKALPAPIEKTISKAKGQPREPQVYTLPPSRCELTKNQVSLSCAVKGFYPSDIAVEWESNGQPENNYKTTPPVLDSDGSFFLVSKLTVDKSRWQQGNVFSCSVMHEALHNHYTQKSLSLSPDYKDDDDK EPKSSDKTHTCPPCPAPELLGGPSVFLFPPKPKDTLMISRTPEVTCVVVDVSHEDPEVKFNWYVDGVEVHNAKTKPREEQYNSTYRVVSVLTVLHQDWLNGKEYKCKVSNKALPAPIEKTISKAKGQPREPQVCTLPPSRDELTKNQVSLWCLVKGFYPSDIAVEWESNGQPENNYKTTPPVLDSDGSFFLYSKLTVDKSRWQQGNVFSCSVMHEALHNRYTQKSLSLSP light: DIVMTQSPLSLPVTPGEPASISCRSSQSLVHSNRNTYLHWYQQKPGQAPRLLIYKVSNRFSGVPDRFSGSGSGTDFTLKISRVEAEDVGVYYCGQGTQVPYTFGQGTKLEIKRTVAAPSVFIFPPSDEQLKSGTASVVCLLNNFYPREAKVQWKVDNALQSGNSQESVTEQDSKDSTYSLSSTLTLSKADYEKHKVYACEVTHQGLSSPVTKSFNRGEC	4.04
CE115HA000 H chain altered form K52E (antibody, human IgG1, kappa, L234A L235A, N297A, name in Kabat numbering, one-arm antibody) heavy: QVQLVESGGGVVQPGRSLRLSCAASGFTFSNAWMHWVRQAPGKGLEWVAQIEAKSNNYATYYAESVKGRFTISRDDSKNSLYLQMNSLKTEDTAVYYCRYVHYGAYYGVDAWGQGTTVTVSSASTKGPSVFPLAPSSKSTSGGTAALGCLVKDYFPEPVTVSWNSGALTSGVHTFPAVLQSSGLYSLSSVVTVPSSSLGTQTYICNVNHKPSNTKVDKKVEPKSCDKTHTCPPCPAPEAAGGPSVFLFPPKPKDTLMISRTPEVTCVVVDVSHEDPEVKFNWYVDGVEVHNAKTKPREEQYASTYRVVSVLTVLHQDWLNGKEYKCKVSNKALPAPIEKTISKAKGQPREPQVYTLPPSRCELTKNQVSLSCAVKGFYPSDIAVEWESNGQPENNYKTTPPVLDSDGSFFLVSKLTVDKSRWQQGNVFSCSVMHEALHNHYTQKSLSLSPDYKDDDDK EPKSSDKTHTCPPCPAPELLGGPSVFLFPPKPKDTLMISRTPEVTCVVVDVSHEDPEVKFNWYVDGVEVHNAKTKPREEQYNSTYRVVSVLTVLHQDWLNGKEYKCKVSNKALPAPIEKTISKAKGQPREPQVCTLPPSRDELTKNQVSLWCLVKGFYPSDIAVEWESNGQPENNYKTTPPVLDSDGSFFLYSKLTVDKSRWQQGNVFSCSVMHEALHNRYTQKSLSLSP light: DIVMTQSPLSLPVTPGEPASISCRSSQSLVHSNRNTYLHWYQQKPGQAPRLLIYKVSNRFSGVPDRFSGSGSGTDFTLKISRVEAEDVGVYYCGQGTQVPYTFGQGTKLEIKRTVAAPSVFIFPPSDEQLKSGTASVVCLLNNFYPREAKVQWKVDNALQSGNSQESVTEQDSKDSTYSLSSTLTLSKADYEKHKVYACEVTHQGLSSPVTKSFNRGEC	19.4

The remaining lines, values ahead:

KD ratio (KD of CE115HA000 / KD of altered form)	Binder
3.29	CE115HA000 H chain altered form K52N (antibody, human IgG1, kappa, L234A L235A, N297A, name in Kabat numbering, one-arm antibody) heavy: QVQLVESGGGVVQPGRSLRLSCAASGFTFSNAWMHWVRQAPGKGLEWVAQINAKSNNYATYYAESVKGRFTISRDDSKNSLYLQMNSLKTEDTAVYYCRYVHYGAYYGVDAWGQGTTVTVSSASTKGPSVFPLAPSSKSTSGGTAALGCLVKDYFPEPVTVSWNSGALTSGVHTFPAVLQSSGLYSLSSVVTVPSSSLGTQTYICNVNHKPSNTKVDKKVEPKSCDKTHTCPPCPAPEAAGGPSVFLFPPKPKDTLMISRTPEVTCVVVDVSHEDPEVKFNWYVDGVEVHNAKTKPREEQYASTYRVVSVLTVLHQDWLNGKEYKCKVSNKALPAPIEKTISKAKGQPREPQVYTLPPSRCELTKNQVSLSCAVKGFYPSDIAVEWESNGQPENNYKTTPPVLDSDGSFFLVSKLTVDKSRWQQGNVFSCSVMHEALHNHYTQKSLSLSPDYKDDDDK EPKSSDKTHTCPPCPAPELLGGPSVFLFPPKPKDTLMISRTPEVTCVVVDVSHEDPEVKFNWYVDGVEVHNAKTKPREEQYNSTYRVVSVLTVLHQDWLNGKEYKCKVSNKALPAPIEKTISKAKGQPREPQVCTLPPSRDELTKNQVSLWCLVKGFYPSDIAVEWESNGQPENNYKTTPPVLDSDGSFFLYSKLTVDKSRWQQGNVFSCSVMHEALHNRYTQKSLSLSP light: DIVMTQSPLSLPVTPGEPASISCRSSQSLVHSNRNTYLHWYQQKPGQAPRLLIYKVSNRFSGVPDRFSGSGSGTDFTLKISRVEAEDVGVYYCGQGTQVPYTFGQGTKLEIKRTVAAPSVFIFPPSDEQLKSGTASVVCLLNNFYPREAKVQWKVDNALQSGNSQESVTEQDSKDSTYSLSSTLTLSKADYEKHKVYACEVTHQGLSSPVTKSFNRGEC
2.65	CE115HA000 H chain altered form K52H (antibody, human IgG1, kappa, L234A L235A, N297A, name in Kabat numbering, one-arm antibody) heavy: QVQLVESGGGVVQPGRSLRLSCAASGFTFSNAWMHWVRQAPGKGLEWVAQIHAKSNNYATYYAESVKGRFTISRDDSKNSLYLQMNSLKTEDTAVYYCRYVHYGAYYGVDAWGQGTTVTVSSASTKGPSVFPLAPSSKSTSGGTAALGCLVKDYFPEPVTVSWNSGALTSGVHTFPAVLQSSGLYSLSSVVTVPSSSLGTQTYICNVNHKPSNTKVDKKVEPKSCDKTHTCPPCPAPEAAGGPSVFLFPPKPKDTLMISRTPEVTCVVVDVSHEDPEVKFNWYVDGVEVHNAKTKPREEQYASTYRVVSVLTVLHQDWLNGKEYKCKVSNKALPAPIEKTISKAKGQPREPQVYTLPPSRCELTKNQVSLSCAVKGFYPSDIAVEWESNGQPENNYKTTPPVLDSDGSFFLVSKLTVDKSRWQQGNVFSCSVMHEALHNHYTQKSLSLSPDYKDDDDK EPKSSDKTHTCPPCPAPELLGGPSVFLFPPKPKDTLMISRTPEVTCVVVDVSHEDPEVKFNWYVDGVEVHNAKTKPREEQYNSTYRVVSVLTVLHQDWLNGKEYKCKVSNKALPAPIEKTISKAKGQPREPQVCTLPPSRDELTKNQVSLWCLVKGFYPSDIAVEWESNGQPENNYKTTPPVLDSDGSFFLYSKLTVDKSRWQQGNVFSCSVMHEALHNRYTQKSLSLSP light: DIVMTQSPLSLPVTPGEPASISCRSSQSLVHSNRNTYLHWYQQKPGQAPRLLIYKVSNRFSGVPDRFSGSGSGTDFTLKISRVEAEDVGVYYCGQGTQVPYTFGQGTKLEIKRTVAAPSVFIFPPSDEQLKSGTASVVCLLNNFYPREAKVQWKVDNALQSGNSQESVTEQDSKDSTYSLSSTLTLSKADYEKHKVYACEVTHQGLSSPVTKSFNRGEC
3.54	CE115HA000 H chain altered form K52I (antibody, human IgG1, kappa, L234A L235A, N297A, name in Kabat numbering, one-arm antibody) heavy: QVQLVESGGGVVQPGRSLRLSCAASGFTFSNAWMHWVRQAPGKGLEWVAQIIAKSNNYATYYAESVKGRFTISRDDSKNSLYLQMNSLKTEDTAVYYCRYVHYGAYYGVDAWGQGTTVTVSSASTKGPSVFPLAPSSKSTSGGTAALGCLVKDYFPEPVTVSWNSGALTSGVHTFPAVLQSSGLYSLSSVVTVPSSSLGTQTYICNVNHKPSNTKVDKKVEPKSCDKTHTCPPCPAPEAAGGPSVFLFPPKPKDTLMISRTPEVTCVVVDVSHEDPEVKFNWYVDGVEVHNAKTKPREEQYASTYRVVSVLTVLHQDWLNGKEYKCKVSNKALPAPIEKTISKAKGQPREPQVYTLPPSRCELTKNQVSLSCAVKGFYPSDIAVEWESNGQPENNYKTTPPVLDSDGSFFLVSKLTVDKSRWQQGNVFSCSVMHEALHNHYTQKSLSLSPDYKDDDDK EPKSSDKTHTCPPCPAPELLGGPSVFLFPPKPKDTLMISRTPEVTCVVVDVSHEDPEVKFNWYVDGVEVHNAKTKPREEQYNSTYRVVSVLTVLHQDWLNGKEYKCKVSNKALPAPIEKTISKAKGQPREPQVCTLPPSRDELTKNQVSLWCLVKGFYPSDIAVEWESNGQPENNYKTTPPVLDSDGSFFLYSKLTVDKSRWQQGNVFSCSVMHEALHNRYTQKSLSLSP light: DIVMTQSPLSLPVTPGEPASISCRSSQSLVHSNRNTYLHWYQQKPGQAPRLLIYKVSNRFSGVPDRFSGSGSGTDFTLKISRVEAEDVGVYYCGQGTQVPYTFGQGTKLEIKRTVAAPSVFIFPPSDEQLKSGTASVVCLLNNFYPREAKVQWKVDNALQSGNSQESVTEQDSKDSTYSLSSTLTLSKADYEKHKVYACEVTHQGLSSPVTKSFNRGEC
